Values of other authors as cited in patent US20220241413A1, “COMBINATION THERAPIES USING CD-38 ANTIBODIES” (Takeda Pharmaceutical Company Limited, priority 2019, published 2022).
Like-named read-outs stand apart in the source and are kept apart here.

Key:
[1] = cited from earlier work
[2] = test system: NK cells; conditions: IV, patients with RRMM, doses up to 24 mg/kg; cited from earlier work
[3] = IV, patients with RRMM, doses up to 24 mg/kg; cited from earlier work
[4] = cited from earlier work; remark: listed apart in the source
[5] = test system: RBCs and platelets; conditions: cited from earlier work
[6] = SC formulation with hyaluronidase

## MOR202: anti-CD38 IgG1 antibody, used clinically via IV infusion
[1]; RRMM, IV infusion
  Grade ≥3 TEAE: hypertension: 9%
  Grade ≥3 TEAE: leukopenia: 11%
  Grade ≥3 TEAE: lymphopenia: 18%
  TEAE at any grade: anemia: 34%
  TEAE at any grade: fatigue: 32%
  TEAE at any grade: infusion-related reactions (IRRs): 30%
  TEAE at any grade: leukopenia: 30%
  TEAE at any grade: lymphopenia: 25%
  TEAE at any grade: nausea: 25%
  patients with Grade ≥3 TEAEs: 64%
[1]; in vivo, iv
  infections: 59%

## daratumumab: first approved anti-CD38 drug, anti-CD38 IgG1 antibody
[2]
  comparable depletion of NK cells (to >90% with AB79): not achieved
[3]
  mean Cmax: > 500 µg/mL
[4]; IV administration
  incidence of IRR, Grade 3 or higher: ≤ 9%
  incidence of IRR, all grades: ≥ 50%
[4]; [6]
  incidence of IRR, Grade 3 or higher: 8%
  incidence of IRR, all grades: 16%
[4]; SC
  Grade 3 and 4 TEAE: hypertension: 8%
  Grade 3 and 4 TEAE: lymphopenia: 20%
  Grade 3 and 4 TEAE: neutropenia: 8%
  Grade 3 and 4 TEAE: thrombocytopenia: 8%
  injection site reactions (induration, erythema, discoloration, hematomas): 16.7 % of patients
[4]; binding to CD38 on RBCs
  persistence of positive indirect Coombs test results after the last infusion: up to 6 months
[4]; human, in vivo
  patients with severe and serious IRRs, including anaphylactic reactions: approximately half
[5]
  binding to RBCs and platelets: strongly bind

## isatuximab: anti-CD38 IgG1 antibody
[5]
  binding to RBCs and platelets: strongly bind
